In publication PMC4895024 (2016):

Tests used:
[1] = target: T1, ProAgio (D1-CD2 variant 3) ( (human and rat D1-CD2 are …, UniProt P06729 25-206)); assay: ELISA; without polyLys
[2] = target: T1, ProAgio (D1-CD2 variant 3); assay: SPR

B1: recombinant integrin αvβ3 (commercial) (receptor)
chain 1: FNLDVDSPAEYSGPEGSYFGFAVDFFVPSASSRMFLLVGAPKANTTQPGIVEGGQVLKCDWSSTRRCQPIEFDATGNRDYAKDDPLEFKSHQWFGASVRSKQDKILACAPLYHWRTEMKQEREPVGTCFLQDGTKTVEYAPCRSQDIDADGQGFCQGGFSIDFTKADRVLLGGPGSFYWQGQLISDQVAEIVSKYDPNVYSIKYNNQLATRTAQAIFDDSYLGYSVAVGDFNGDGIDDFVSGVPRAARTLGMVYIYDGKNMSSLYNFTGEQMAAYFGFSVAATDINGDDYADVFIGAPLFMDRGSDGKLQEVGQVSVSLQRASGDFQTTKLNGFEVFARFGSAIAPLGDLDQDGFNDIAIAAPYGGEDKKGIVYIFNGRSTGLNAVPSQILEGQWAARSMPPSFGYSMKGATDIDKNGYPDLIVGAFGVDRAILYRARPVITVNAGLEVYPSILNQDNKTCSLPGTALKVSCFNVRFCLKADGKGVLPRKLNFQVELLLDKLKQKGAIRRALFLYSRSPSHSKNMTISRGGLMQCEELIAYLRDESEFRDKLTPITIFMEYRLDYRTAADTTGLQPILNQFTPANISRQAHILLDCGEDNVCKPKLEVSVDSDQKKIYIGDDNPLTLIVKAQNQGEGAYEAELIVSIPLQADFIGVVRNNEALARLSCAFKTENQTRQVVCDLGNPMKAGTQLLAGLRFSVHQQSEMDTSVKFDLQIQSSNLFDKVSPVVSHKVDLAVLAAVEIRGVSSPDHVFLPIPNWEHKENPETEEDVGPVVQHIYELRNNGPSSFSKAMLHLQWPYKYNNNTLLYILHYDIDGPMNCTSDMEINPLRIKISSLQTTEKNDTVAGQGERDHLITKRDLALSEGDIHTLGCGVAQCLKIVCQVGRLDRGKSAILYVKSLLWTETFMNKENQNHSYSLKSSASFNVIEFPYKNLPIEDITNSTLVTTNVTWGIQPAPMPV
chain 2: GPNICTTRGVSSCQQCLAVSPMCAWCSDEALPLGSPRCDLKENLLKDNCAPESIEFPVSEARVLEDRPLSDKGSGDSSQVTQVSPQRIALRLRPDDSKNFSIQVRQVEDYPVDIYYLMDLSYSMKDDLWSIQNLGTKLATQMRKLTSNLRIGFGAFVDKPVSPYMYISPPEALENPCYDMKTTCLPMFGYKHVLTLTDQVTRFNEEVKKQSVSRNRDAPEGGFDAIMQATVCDEKIGWRNDASHLLVFTTDAKTHIALDGRLAGIVQPNDGQCHVGSDNHYSASTTMDYPSLGLMTEKLSQKNINLIFAVTENVVNLYQNYSELIPGTTVGVLSMDSSNVLQLIVDAYGKIRSKVELEVRDLPEELSLSFNATCLNNEVIPGLKSCMGLKIGDTVSFSIEAKVRGCPQEKEKSFTIKPVGFKDSLIVQVTFDCDCACQAQAEPNSHRCNNGNGTFECGVCRCGPGWLGSQCECSEEDYRPSQQDECSPREGQPVCSQRGECLCGQCVCHSSDFGKITGKYCECDDFSCVRYKGEMCSGHGQCSCGDCLCDSDWTGYYCNCTTRTDTCMSSNGLLCSGRGKCECGSCVCIQPGSYGDTCEKCPTCPDACTFKKECVECKKFDRGALHDENTCNRYCRDEIESVKELKDTGKDAVNCTYKNEDDCVVRFQYYEDSSGKSILYVVEEPECPKGPD
- Kd [1]: 35 nM
- Kd [2]: 2 nM
